Data as given in patent US20260242495A1 (PROMETHEUS BIOSCIENCES, published 2026).
Several values for one entry are separate records, joined by “and”; a condition that tells them apart may be missing. Equal values may be shown once.

Target: T1, cynomolgus monkey TL1A (cynomolgus monkey, UniProt G7PRK8 72-251)
T1 sequence: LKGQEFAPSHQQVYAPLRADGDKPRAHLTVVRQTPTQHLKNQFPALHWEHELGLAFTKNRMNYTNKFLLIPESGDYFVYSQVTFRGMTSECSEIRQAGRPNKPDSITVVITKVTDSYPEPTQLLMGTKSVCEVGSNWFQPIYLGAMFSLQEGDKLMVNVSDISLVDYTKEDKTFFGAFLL
Assay: cell-based or functional assay

- IC50 of inhibition of IFN-γ release in monkey whole blood stimulated with immune complex, IL-12 and IL-18: 1.54 nM and 289 ng/mL
B1: anti-TL1A antibody A219 (antibody, V domains shown)
VH: QVQLVQSGAEVKKPGASVKVSCKASGFDIQDTYMHWVKQRPGQGLEWMGRIDPASGHTKYDPKFQVRVTITRDTSTSTVYLELSSLRSEDTAVYYCARSGGLPDVWGQGTTVTVSS
VL: EIVLTQSPGTLSLSPGERATLSCRASSSVSYMYWYQQKPGQAPRPLIYATSNLASGIPDRFSGSGSGTDFTLTISRLEPEDFAVYYCQQWEGNPRTFGGGTKLEIK
